Assay results taken from the supplement of paper PMC10567573.

B1: TEKT4 (parent)
chain: YARYHQAFADRDQSERQRHESQQL
B2: TBX6 (parent)
chain: AFLELPHGSGGSGYPAAPPAVPFA

Variants of: B1
Assay: protein stability index of a GFP-peptide fusion (GPS, HEK-293T) (PSI 1-6); higher = more stable
Settings: c terminus: a fixed tail appended
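Further: lentivirally expressed fusions sorted by FACS into six bins by GFP to DsRed ratio, PSI derived from sequencing read proportions per bin multiplied by bin number.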

Q: With EARYHQAFADRDQSERQRHESQQL [Y1E] as the variant, how does the protein stability index read?
A: 5

Q: For IARYHQAFADRDQSERQRHESQQL [Y1I], which protein stability index is on record?
A: 4.55

Q: For YARYHQAFAIRDQSERQRHESQQL [D10I], which protein stability index is on record?
A: 2.58

Q: For YARYHQAFAFRDQSERQRHESQQL [D10F], which protein stability index is on record?
A: 1.99

Q: With YARYHQAFATRDQSERQRHESQQL [D10T] as the variant, how does the protein stability index read?
A: 1.85

Q: Which protein stability index does the source give for YARYHQAFADRDQSERQRGESQQL [H19G] here?
A: 2.64

Q: For YARYHQAFADRDQSERQRAESQQL [H19A], which protein stability index is on record?
A: 2.11

Q: With YARYHQAFADRDQSERQRCESQQL [H19C] as the variant, how does the protein stability index read?
A: 2.39

Q: With YARYHQAFADRDQSERQRVESQQL [H19V] as the variant, how does the protein stability index read?
A: 2.31

Q: With YARYHQAFSDRDQSERQRHESQQL [A9S] as the variant, how does the protein stability index read?
A: 2.48

Q: For YARYHQAFRDRDQSERQRHESQQL [A9R], which protein stability index is on record?
A: 2.35

Q: Which protein stability index does the source give for YARYHQAFHDRDQSERQRHESQQL [A9H] here?
A: 3.21

Q: Which protein stability index does the source give for YARYHQAFVDRDQSERQRHESQQL [A9V] here?
A: 3.35

Q: For YARYHQAFADRDQSERQRHEGQQL [S21G], which protein stability index is on record?
A: 2.32

Q: Which protein stability index does the source give for YARYHQAFADRDQSERQRHEFQQL [S21F] here?
A: 1.59

Q: Which protein stability index does the source give for YARYHQAFADRDQSERQRHEWQQL [S21W] here?
A: 1.69

Q: For YARYHQAFADRDQSERQRHELQQL [S21L], which protein stability index is on record?
A: 1.83

Q: For YARYHQAFADRDQSERQRHENQQL [S21N], which protein stability index is on record?
A: 1.98

Q: Which protein stability index does the source give for YARYHQAFADRDQSERQRHEEQQL [S21E] here?
A: 2.5

Q: With YALYHQAFADRDQSERQRHESQQL [R3L] as the variant, how does the protein stability index read?
A: 2.97

Q: Which protein stability index does the source give for YAIYHQAFADRDQSERQRHESQQL [R3I] here?
A: 3.4

Q: Which protein stability index does the source give for YARYHQAFADRGQSERQRHESQQL [D12G] here?
A: 2.08

Q: With YARYHQAFADRHQSERQRHESQQL [D12H] as the variant, how does the protein stability index read?
A: 2.15

Q: For YARYHQAFADRKQSERQRHESQQL [D12K], which protein stability index is on record?
A: 1.67

Q: Which protein stability index does the source give for YARYHQAFADRQQSERQRHESQQL [D12Q] here?
A: 2.31

Q: For YARYHDAFADRDQSERQRHESQQL [Q6D], which protein stability index is on record?
A: 2.73

Q: With YARYHHAFADRDQSERQRHESQQL [Q6H] as the variant, how does the protein stability index read?
A: 2.25

Q: For YARYHCAFADRDQSERQRHESQQL [Q6C], which protein stability index is on record?
A: 2.02

Q: For YARYHVAFADRDQSERQRHESQQL [Q6V], which protein stability index is on record?
A: 2.69

Q: With YARYHQIFADRDQSERQRHESQQL [A7I] as the variant, how does the protein stability index read?
A: 1.81

Q: With YARYHQWFADRDQSERQRHESQQL [A7W] as the variant, how does the protein stability index read?
A: 2.02

Q: For YARYHQAFADRDQSERQRHRSQQL [E20R], which protein stability index is on record?
A: 2.13

Q: For YARYHQAFADRDQSERQRHTSQQL [E20T], which protein stability index is on record?
A: 2.27

Q: For YARYHQAFADMDQSERQRHESQQL [R11M], which protein stability index is on record?
A: 2.54

Q: For YARYHQAFADKDQSERQRHESQQL [R11K], which protein stability index is on record?
A: 2.46

Q: For YARYHQAFADVDQSERQRHESQQL [R11V], which protein stability index is on record?
A: 2.12

Q: Which protein stability index does the source give for YARYHQAFADTDQSERQRHESQQL [R11T] here?
A: 2.12

Q: With YARYHQAFADRDQSVRQRHESQQL [E15V] as the variant, how does the protein stability index read?
A: 1.83

Q: With YARYHQAFADRDQSKRQRHESQQL [E15K] as the variant, how does the protein stability index read?
A: 1.73

Q: With YARYHQAFADRDQSIRQRHESQQL [E15I] as the variant, how does the protein stability index read?
A: 1.52

Q: With YARYHQAFADRDQSSRQRHESQQL [E15S] as the variant, how does the protein stability index read?
A: 1.76

Q: For YARYHQAFADRDQSWRQRHESQQL [E15W], which protein stability index is on record?
A: 1.61

Q: For YARDHQAFADRDQSERQRHESQQL [Y4D], which protein stability index is on record?
A: 3.46

Q: For YARLHQAFADRDQSERQRHESQQL [Y4L], which protein stability index is on record?
A: 2.92

Q: Which protein stability index does the source give for YARGHQAFADRDQSERQRHESQQL [Y4G] here?
A: 3.08

Q: Which protein stability index does the source give for YARYHQAFADRDHSERQRHESQQL [Q13H] here?
A: 2.19

Q: With YARYHQAFADRDWSERQRHESQQL [Q13W] as the variant, how does the protein stability index read?
A: 1.72

Q: With YARYHQAFADRDQSERQRHESDQL [Q22D] as the variant, how does the protein stability index read?
A: 2.17

Q: Which protein stability index does the source give for YARYHQAFADRDQSERQRHESVQL [Q22V] here?
A: 1.79

Q: For YARYHQAFADRDQSERQRHESHQL [Q22H], which protein stability index is on record?
A: 2.36

Q: For YARYTQAFADRDQSERQRHESQQL [H5T], which protein stability index is on record?
A: 3.6

Q: Which protein stability index does the source give for YARYMQAFADRDQSERQRHESQQL [H5M] here?
A: 3.43

Q: For YARYSQAFADRDQSERQRHESQQL [H5S], which protein stability index is on record?
A: 2.16

Q: Which protein stability index does the source give for YARYHQACADRDQSERQRHESQQL [F8C] here?
A: 3.97

Q: With YARYHQAQADRDQSERQRHESQQL [F8Q] as the variant, how does the protein stability index read?
A: 4

Q: With YARYHQAFADRDQSERQRHESQHL [Q23H] as the variant, how does the protein stability index read?
A: 2.34

Q: For YARYHQAFADRDQSERQRHESQVL [Q23V], which protein stability index is on record?
A: 1.68

Q: Which protein stability index does the source give for YARYHQAFADRDQSERQSHESQQL [R18S] here?
A: 2.59

Q: For YARYHQAFADRDQSERQAHESQQL [R18A], which protein stability index is on record?
A: 1.9

Q: Which protein stability index does the source give for YARYHQAFADRDQSERQQHESQQL [R18Q] here?
A: 2.24

Q: Which protein stability index does the source give for YARYHQAFADRDQSERQMHESQQL [R18M] here?
A: 1.78

Q: For YARYHQAFADRDQKERQRHESQQL [S14K], which protein stability index is on record?
A: 2.22

Q: With YARYHQAFADRDQSERARHESQQL [Q17A] as the variant, how does the protein stability index read?
A: 2

Q: For YARYHQAFADRDQSERMRHESQQL [Q17M], which protein stability index is on record?
A: 1.73

Q: Which protein stability index does the source give for YARYHQAFADRDQSERERHESQQL [Q17E] here?
A: 1.63

Q: With YARYHQAFADRDQSERSRHESQQL [Q17S] as the variant, how does the protein stability index read?
A: 1.87

Q: For YARYHQAFADRDQSEAQRHESQQL [R16A], which protein stability index is on record?
A: 2.35

Q: Which protein stability index does the source give for YARYHQAFADRDQSEKQRHESQQL [R16K] here?
A: 1.93

Q: Which protein stability index does the source give for YARYHQAFADRDQSEIQRHESQQL [R16I] here?
A: 2.2

Q: For YARYHQAFADRDQSEQQRHESQQL [R16Q], which protein stability index is on record?
A: 2.21

Q: For YARYHQAFADRDQSEFQRHESQQL [R16F], which protein stability index is on record?
A: 2.81

Q: With YARYHQAFADRDQSERQRHESQQH [L24H] as the variant, how does the protein stability index read?
A: 2.42

Q: Which protein stability index does the source give for YARYHQAFADRDQSERQRHESQQY [L24Y] here?
A: 2.12

Q: With YARYHQAFADRDQSERQRHESQQG [L24G] as the variant, how does the protein stability index read?
A: 2.37

Q: For YARYHQAFADRDQSERQRHESQQF [L24F], which protein stability index is on record?
A: 2.37

Q: With YQRYHQAFADRDQSERQRHESQQL [A2Q] as the variant, how does the protein stability index read?
A: 1.84

Q: For YFRYHQAFADRDQSERQRHESQQL [A2F], which protein stability index is on record?
A: 2.87

Q: Which protein stability index does the source give for YCRYHQAFADRDQSERQRHESQQL [A2C] here?
A: 1.48

Q: For YHRYHQAFADRDQSERQRHESQQL [A2H], which protein stability index is on record?
A: 4.12

Q: With YKRYHQAFADRDQSERQRHESQQL [A2K] as the variant, how does the protein stability index read?
A: 3.82

Variants of: B2
Assay: as above
Settings: c terminus: a fixed tail appended

Q: Which protein stability index does the source give for GFLELPHGSGGSGYPAAPPAVPFA [A1G] here?
A: 2.84

Q: Which protein stability index does the source give for PFLELPHGSGGSGYPAAPPAVPFA [A1P] here?
A: 2.94

Q: Which protein stability index does the source give for DFLELPHGSGGSGYPAAPPAVPFA [A1D] here?
A: 2.83

Q: Which protein stability index does the source give for IFLELPHGSGGSGYPAAPPAVPFA [A1I] here?
A: 2.67

Q: With KFLELPHGSGGSGYPAAPPAVPFA [A1K] as the variant, how does the protein stability index read?
A: 3.26

Q: With LFLELPHGSGGSGYPAAPPAVPFA [A1L] as the variant, how does the protein stability index read?
A: 2.07

Q: With RFLELPHGSGGSGYPAAPPAVPFA [A1R] as the variant, how does the protein stability index read?
A: 2.58

Q: For HFLELPHGSGGSGYPAAPPAVPFA [A1H], which protein stability index is on record?
A: 3.13

Q: For CFLELPHGSGGSGYPAAPPAVPFA [A1C], which protein stability index is on record?
A: 1.41

Q: For NFLELPHGSGGSGYPAAPPAVPFA [A1N], which protein stability index is on record?
A: 2.83

Q: For MFLELPHGSGGSGYPAAPPAVPFA [A1M], which protein stability index is on record?
A: 1.61

Q: Which protein stability index does the source give for EFLELPHGSGGSGYPAAPPAVPFA [A1E] here?
A: 3.11

Q: With QFLELPHGSGGSGYPAAPPAVPFA [A1Q] as the variant, how does the protein stability index read?
A: 2.77

Q: Which protein stability index does the source give for FFLELPHGSGGSGYPAAPPAVPFA [A1F] here?
A: 1.89
